From patent US20100196385A1 (AstraZeneca / MedImmune, published 2010) come the findings set out here.

Some results are limits rather than exact numbers.

As a reminder, the IC50 is the concentration that gives 50% inhibition. One may read the Kd as the constant that tells how readily two partners part at equilibrium. One may read the koff as a measure of how fast the partners let go of each other. Low readings indicate a long-lived complex, high ones a short-lived complex. The kon is the second-order rate constant of association.

The target in assay [1] is T1, human Jagged1 (human, UniProt P78504 34-1218).
T1 construct: whole, on cells
Put plainly: FACS, 5 µg/ml, 293T cells with human Jagged1. A digest of the protocol: (§1)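 Purified anti-DLL4 antibodies were diluted in PBS with 2% FCS and incubated with cells (50000/well, same buffer) for 1 h at 4 °C. Binding was read by flow cytometry as the shift in geometric mean fluorescence in transfected cells relative to mock-transfected cells.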
On the technique in general: A flow cytometer gives signals particle by particle.

The target of assay [2] is T1, human Jagged1. The assay is described as follows: FACS, 1 µg/ml, 293T cells with human Jagged1 vs mock.
For assay [3], the target named is T1, human Jagged1. Put plainly: FACS, 5 µg/ml, 293T cells with human Jagged1 vs mock. A digest of the protocol:
as §1

The target of assay [4] is T1, human Jagged1. The assay is described as follows: FACS, 0.2 µg/ml, 293T cells with human Jagged1 vs mock.
For assay [5], the target named is T2, human Dll1 (human, UniProt O00548 18-723).
T2 construct: whole, on cells
T2 sequence (looked up): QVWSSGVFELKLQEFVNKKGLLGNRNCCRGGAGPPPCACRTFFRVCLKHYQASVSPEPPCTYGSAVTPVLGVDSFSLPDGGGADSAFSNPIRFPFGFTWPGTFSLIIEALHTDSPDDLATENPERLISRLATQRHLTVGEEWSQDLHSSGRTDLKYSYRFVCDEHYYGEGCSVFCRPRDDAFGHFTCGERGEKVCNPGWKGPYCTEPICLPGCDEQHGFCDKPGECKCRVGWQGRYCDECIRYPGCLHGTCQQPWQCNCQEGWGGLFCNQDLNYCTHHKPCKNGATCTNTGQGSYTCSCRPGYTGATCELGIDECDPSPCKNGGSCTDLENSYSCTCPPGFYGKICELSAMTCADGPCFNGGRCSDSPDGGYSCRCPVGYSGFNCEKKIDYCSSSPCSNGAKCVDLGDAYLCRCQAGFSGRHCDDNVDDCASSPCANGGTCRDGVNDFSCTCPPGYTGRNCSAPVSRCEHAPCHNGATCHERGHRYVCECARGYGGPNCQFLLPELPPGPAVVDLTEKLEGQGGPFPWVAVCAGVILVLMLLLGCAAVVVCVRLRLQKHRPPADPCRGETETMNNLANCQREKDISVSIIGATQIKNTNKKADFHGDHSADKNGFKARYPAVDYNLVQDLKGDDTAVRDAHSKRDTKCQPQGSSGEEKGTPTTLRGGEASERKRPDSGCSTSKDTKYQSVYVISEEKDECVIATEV
Put plainly: FACS, up to 300 µg/ml, HEK-293 cells stably overexpressing human Dll1.

For assay [6], the target named is T1, human Jagged1. Put plainly: FACS, up to 300 µg/ml, HEK-293 cells stably overexpressing human Jagged1.
Assay [7] concerns the target T3, full length human DLL4 (human, UniProt Q9NR61 27-685).
T3 construct: whole, on cells; also called native DLL4 expressed in HEK293 cells
Put plainly: FACS competition, unlabeled antibody vs competitor Alexa-647 4B4, HEK293 cells with human DLL4. As to the method: (§2) The ability of the purified DLL4 antibodies to inhibit the binding of other DLL4 antibodies to human DLL4 was assessed using a FACS assay. Briefly, antibodies were directly labelled with Alexa-647 using a commercially available labelling kit (e.g. Molecular Probes catalog #A30009, A-20186) as per the manufacturer's instructions. To determine the level of cross-competition, unlabelled anti-DLL4 antibodies (final concentration: 10-0.01 μg/ml) diluted in PBS containing 2% FCS were added to DLL4-expressing HEK 293 cells (as described in example 6; 50000 cells/well diluted in PBS containing 2% FCS) and incubated for 1 h at 4° C. Subsequently, Alexa-647 labeled anti-DLL4 antibodies were added at a final concentration of 0.1 μg/ml and plates were incubated for a further 1 h at 4° C. prior to washing and reading on a FACSCalibur instrument. Data that summarizes the ability of unlabeled antibodies (10, 1, 0.1 μg/ml) to compete with labeled 21H3RK for binding to human DLL4 is included in FIG. 3. Additional data that summarizes the ability of unlabeled antibodies to compete with labeled 21H3RK and 4B4 for binding to human DLL4 is included in Table 22.

The target in assay [8] is T3, full length human DLL4. The assay is described as follows: FACS competition, unlabeled antibody vs competitor Alexa-647 21H3RK, HEK293 cells with human DLL4. As to the method: as §2
The target in assay [9] is T2, human Dll1. Put plainly: Flow cytometry on HEK293F cells transiently expressing HuDll1; 21H3RK, goat anti-human IgG-FITC. An excerpt: This specificity is employed to deduce the binding epitope of Mab 21H3RK to human DLL4. Chimeric variants were engineered with portions of the extracellular domain of DLL4 replaced with the corresponding segments of DLL1. […] The resulting variants were cloned into a mammalian expression vector encoding a human cytomegalovirus major immediate early (hCMVie) enhancer, promoter and 5′-untranslated region for transient mammalian expression. The chimeric variants were transiently expressed in HEK293F cells as membrane-bound proteins for flow cytometric characterization with Mab 21H3RK. 48 h post-transfection, HEK293F transfectants were incubated with 1 μg/ml of Mab 21H3RK for 1 h on ice in PBS, washed, then incubated with goat anti-human IgG-FITC (Jackson ImmunoResearch Laboratories, PA) and analyzed with a LSRII flow cytometer (BD Biosciences, CA). The expression levels of all chimeric variants were is monitored by incubating with a mixture of both goat anti-mouse DLL4 (which also recognizes human DLL4) and goat anti-human DLL1 polyclonal antibodies (both from R&D Systems., MN), then detected with porcine anti-goat IgG-PE (Invitrogen, CA).

The target in assay [10] is T3, full length human DLL4. Put plainly: FACS titration, HEK293 cells with human DLL4. As to the method: The binding affinities of the purified antibodies for DLL4 was estimated using is both FACS and BIAcore techniques. […] The cells were then washed and incubated with goat anti-human IgG-Fc-Cy5+5 μg/mL 7-Amino-Actinomycin (7AAD) for 30 minutes at 4° C.
In this equation, F=mean fluorescence, LT=total molecular mAb concentration, P′=proportionality constant that relates arbitrary fluorescence units to bound mAb, M=cellular concentration in molarity, n=number of receptors per cell, B=background signal, and KD=equilibrium dissociation constant. For each mAb titration curve an estimate for KD is obtained as P′, n, B, and KD are allowed to float freely in the nonlinear analysis. Table 20 summarizes the affinity estimates for the anti-DLL4 antibodies for human and cynomolgus monkey DLL4 derived using the methodology described above

Assay [11] deals with T3, full length human DLL4. Put plainly: FACS competition vs human Notch1/Fc, HEK293 cells with human DLL4. The protocol:
(§3) Further experiments were performed on selected antibodies using HEK293 cells that were stably transfected with either human, mouse or cynomolgus monkey DLL4 using retroviral constructs. In these experiments, anti-DLL4 antibodies (final concentration: 10-0.01 μg/ml) diluted in PBS containing 2% FCS were added to DLL4-expressing HEK 293 cells (50000 cells/well diluted in PBS containing 2% FCS) and incubated for 1 h at 4° C. Subsequently, Alexa-647 labeled human, rat or APC labeled mouse Notch1/Fc (e.g. R&D Systems, catalog #3647-TK-050, 1057-TK-050, 5267-TK-050, respectively) was added at a final concentration of 0.01-0.5 μg/ml and plates were incubated for a further 2 h at 4° C. prior to washing and reading on a FACSCalibur instrument.

Another assay deals with T4, full length mouse DLL4 (mouse, UniProt Q9JI71 27-686).
T4 construct: whole, on cells
Put plainly: FACS competition vs mouse Notch1/Fc, HEK293 cells with mouse DLL4. The protocol: as §3

Assay [12] deals with T5, human soluble DLL4 (R&D systems catalog #1056-D4-050) (human, UniProt Q9NR61 27-524).
T5 construct: Catalog number as printed; perhaps the same product as #1506-D4; also called antigen DLL4
The assay is described as follows: Biacore T100, antibody immobilised, soluble human DLL4 as analyte. As to the method:
For Biacore analysis, each purified anti-DLL4 antibody was immobilized on a CM5 sensor chip within a T100 using standard amine coupling. Immobilization levels were kept below 200 RU. The concentration of DLL4 was determined by UV-VIS spectroscopy using a molar absorptivity at 280 nm of 110, 440 M⁻¹cm⁻¹, which was calculated from the sequence of the protein using a method developed by Pace et al. (G. R. Grimsley and C. N. Pace (2003) in Current Protocols in Protein Science (John Wiley & Sons, Inc.), 3.1.1-3.1.9). The antigen DLL4 (R&D systems; human catalog #1056-D4-050 or mouse, catalog #1389-D4-050) was diluted to a starting concentration of 32-64 nM and tested in a 3-fold dilution series in triplicate. The running buffer contained HBS-P with 0.1 mg/ml BSA and binding responses were collected at 23° C. Bound complexes were regenerated with a 15 s pulse of 10 mM of sodium hydroxide. The response data were globally fitted with a simple 1:1 interaction model and Table 20 summarizes the kₐ, kd and KD estimates obtained for the anti-DLL4 antibodies when binding to human soluble DLL4 was assessed.
(In SPR one partner is held on a chip, and binding of the other changes the refractive index at the surface.)

T5 sequence (Q9NR61 27-524 limits assumed): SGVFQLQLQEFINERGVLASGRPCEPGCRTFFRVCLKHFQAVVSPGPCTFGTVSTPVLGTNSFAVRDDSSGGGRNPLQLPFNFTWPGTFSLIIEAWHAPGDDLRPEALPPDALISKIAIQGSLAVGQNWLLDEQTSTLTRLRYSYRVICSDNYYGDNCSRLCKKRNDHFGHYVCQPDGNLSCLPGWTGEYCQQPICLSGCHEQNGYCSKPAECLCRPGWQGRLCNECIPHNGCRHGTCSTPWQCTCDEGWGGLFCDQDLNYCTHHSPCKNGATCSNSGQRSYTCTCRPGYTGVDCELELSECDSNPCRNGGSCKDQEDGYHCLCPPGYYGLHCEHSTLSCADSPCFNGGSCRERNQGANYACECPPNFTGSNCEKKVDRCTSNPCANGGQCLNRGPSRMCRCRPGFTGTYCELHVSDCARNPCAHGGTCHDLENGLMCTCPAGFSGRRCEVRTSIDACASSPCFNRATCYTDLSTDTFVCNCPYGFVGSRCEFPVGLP
T3 sequence (Q9NR61 27-685): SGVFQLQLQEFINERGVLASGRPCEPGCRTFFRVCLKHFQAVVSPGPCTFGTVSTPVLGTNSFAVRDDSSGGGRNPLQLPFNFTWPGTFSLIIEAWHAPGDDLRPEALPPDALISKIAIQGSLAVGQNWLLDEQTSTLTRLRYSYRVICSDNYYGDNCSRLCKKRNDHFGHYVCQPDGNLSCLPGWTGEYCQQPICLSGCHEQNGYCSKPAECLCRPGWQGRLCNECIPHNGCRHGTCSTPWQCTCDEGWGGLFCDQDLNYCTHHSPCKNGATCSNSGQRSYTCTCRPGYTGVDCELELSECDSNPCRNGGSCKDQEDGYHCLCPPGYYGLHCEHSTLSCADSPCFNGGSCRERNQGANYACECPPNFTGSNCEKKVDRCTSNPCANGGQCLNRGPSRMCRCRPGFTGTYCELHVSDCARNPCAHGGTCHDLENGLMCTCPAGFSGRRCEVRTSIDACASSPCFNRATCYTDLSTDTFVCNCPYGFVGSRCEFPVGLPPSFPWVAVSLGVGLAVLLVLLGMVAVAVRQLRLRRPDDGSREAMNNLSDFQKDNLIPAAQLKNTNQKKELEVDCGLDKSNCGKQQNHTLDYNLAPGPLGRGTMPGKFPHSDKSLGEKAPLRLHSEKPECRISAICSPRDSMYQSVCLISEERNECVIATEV
T1 sequence (P78504 34-1218): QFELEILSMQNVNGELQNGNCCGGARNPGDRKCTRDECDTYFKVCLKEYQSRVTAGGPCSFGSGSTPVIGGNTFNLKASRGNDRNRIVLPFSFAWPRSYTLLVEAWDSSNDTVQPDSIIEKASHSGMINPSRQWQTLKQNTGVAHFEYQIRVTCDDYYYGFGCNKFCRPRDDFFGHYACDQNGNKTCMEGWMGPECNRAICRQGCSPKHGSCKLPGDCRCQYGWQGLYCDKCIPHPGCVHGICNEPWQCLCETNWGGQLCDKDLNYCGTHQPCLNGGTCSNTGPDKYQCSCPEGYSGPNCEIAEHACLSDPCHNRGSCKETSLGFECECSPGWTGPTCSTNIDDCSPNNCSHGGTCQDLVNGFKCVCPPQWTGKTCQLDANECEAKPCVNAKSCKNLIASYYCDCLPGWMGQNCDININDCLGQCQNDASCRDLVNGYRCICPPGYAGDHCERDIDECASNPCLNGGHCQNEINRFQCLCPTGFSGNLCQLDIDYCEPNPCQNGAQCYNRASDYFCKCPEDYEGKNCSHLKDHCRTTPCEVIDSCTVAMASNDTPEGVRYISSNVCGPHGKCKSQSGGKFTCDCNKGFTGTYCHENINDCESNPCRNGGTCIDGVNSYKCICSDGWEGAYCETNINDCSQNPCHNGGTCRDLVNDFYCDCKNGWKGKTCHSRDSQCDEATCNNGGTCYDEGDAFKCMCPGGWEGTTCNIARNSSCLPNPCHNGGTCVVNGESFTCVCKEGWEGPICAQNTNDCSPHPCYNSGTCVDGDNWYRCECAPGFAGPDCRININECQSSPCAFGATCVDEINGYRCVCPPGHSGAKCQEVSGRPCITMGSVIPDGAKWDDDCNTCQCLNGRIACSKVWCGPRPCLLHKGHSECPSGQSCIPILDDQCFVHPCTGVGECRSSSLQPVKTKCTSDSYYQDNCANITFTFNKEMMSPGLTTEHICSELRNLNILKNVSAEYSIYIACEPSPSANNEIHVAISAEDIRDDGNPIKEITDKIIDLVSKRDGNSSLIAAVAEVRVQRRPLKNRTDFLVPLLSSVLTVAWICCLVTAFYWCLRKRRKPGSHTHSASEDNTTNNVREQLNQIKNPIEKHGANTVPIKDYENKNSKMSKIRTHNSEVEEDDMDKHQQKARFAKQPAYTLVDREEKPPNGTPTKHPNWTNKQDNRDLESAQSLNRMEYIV
T4 sequence (Q9JI71 27-686): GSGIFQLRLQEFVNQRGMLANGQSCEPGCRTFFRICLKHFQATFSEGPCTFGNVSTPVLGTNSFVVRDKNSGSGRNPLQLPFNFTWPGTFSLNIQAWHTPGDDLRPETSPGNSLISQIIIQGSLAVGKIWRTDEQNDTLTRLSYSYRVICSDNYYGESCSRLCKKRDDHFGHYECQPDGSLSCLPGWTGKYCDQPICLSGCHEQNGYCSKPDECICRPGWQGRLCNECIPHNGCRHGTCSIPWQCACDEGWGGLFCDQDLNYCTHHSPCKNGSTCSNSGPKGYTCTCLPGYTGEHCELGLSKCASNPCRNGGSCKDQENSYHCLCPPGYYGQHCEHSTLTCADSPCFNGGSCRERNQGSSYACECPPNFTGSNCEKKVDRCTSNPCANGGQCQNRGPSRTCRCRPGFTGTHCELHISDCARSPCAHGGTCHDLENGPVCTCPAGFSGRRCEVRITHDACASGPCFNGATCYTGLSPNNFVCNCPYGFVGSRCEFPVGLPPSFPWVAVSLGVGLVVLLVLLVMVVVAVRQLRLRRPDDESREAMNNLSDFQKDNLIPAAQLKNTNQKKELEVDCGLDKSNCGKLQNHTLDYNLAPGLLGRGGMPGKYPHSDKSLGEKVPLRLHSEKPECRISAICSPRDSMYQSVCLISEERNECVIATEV

B1: human Notch3/Fc chimera (Fc fusion, UniProt Q9UM47 40-467, looked up)
chain: APPCLDGSPCANGGRCTQLPSREAACLCPPGWVGERCQLEDPCHSGPCAGRGVCQSSVVAGTARFSCRCPRGFRGPDCSLPDPCLSSPCAHGARCSVGPDGRFLCSCPPGYQGRSCRSDVDECRVGEPCRHGGTCLNTPGSFRCQCPAGYTGPLCENPAVPCAPSPCRNGGTCRQSGDLTYDCACLPGFEGQNCEVNVDDCPGHRCLNGGTCVDGVNTYNCQCPPEWTGQFCTEDVDECQLQPNACHNGGTCFNTLGGHSCVCVNGWTGESCSQNIDDCATAVCFHGATCHDRVASFYCACPMGKTGLLCHLDDACVSNPCHEDAICDTNPVNGRAICTCPPGFTGGACDQDVDECSIGANPCEHLGRCVNTQGSFLCQCGRGYTGPRCETDVNECLSGPCRNQATCLDRIGQFTCICMAGFTGTYCE
notes: Positive control for Jagged1; also called N3 Fc; Fc part of the bought chimera not given, not described
Regarding B1, in the assay with human Jagged1 [1], the “Jagged1/293T X Geo mean” value was found to be 51. The results for the Jagged1/mock ratio with human Jagged1 [2], with human Jagged1 [3] and in the assay with human Jagged1 [4] were 2.88, 3.87 and 1.96, respectively.

B2: 21H3RK (antibody, V domains shown)
VH: QVQLVQSGAEVKKPGASVKVSCKASGYTFTNYGITWVRQAPGQGPEWMGWISAYNGNTNYAQKLQDRVTVTTDTSTSTAYMELRSLRSDDTAVYYCARDRVPRIPVTTEAFDIWGQGTMVTVSS
VL: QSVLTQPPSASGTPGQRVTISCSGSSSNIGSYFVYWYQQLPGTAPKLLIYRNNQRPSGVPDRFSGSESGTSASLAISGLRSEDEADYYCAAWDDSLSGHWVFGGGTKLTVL
notes: also called Mab 21H3RK; Monoclonal 21H3RK
Regarding B2, the fold over background with human Dll1 [5] and in the assay with human Jagged1 [6] was less than 2.5 fold throughout. The half-inhibitory concentration (IC50) worked out at 0.223 µg/mL with full length human DLL4 [7] and 0.214 µg/mL with full length human DLL4 [8]. Also, the binding result with human Dll1 [9] was “no binding (tested: 1 ug/ml (single concentration))”.

B3: 21H3RK IgG1 (antibody, V domains shown)
VH: QVQLVQSGAEVKKPGASVKVSCKASGYTFTNYGITWVRQAPGQGPEWMGWISAYNGNTNYAQKLQDRVTVTTDTSTSTAYMELRSLRSDDTAVYYCARDRVPRIPVTTEAFDIWGQGTMVTVSS
VL: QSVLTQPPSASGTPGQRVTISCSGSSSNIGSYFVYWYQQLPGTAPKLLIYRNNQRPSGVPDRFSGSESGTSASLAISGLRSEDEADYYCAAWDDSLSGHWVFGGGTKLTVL
notes: IgG1; VL is 21H3 VLOP1 (R107K)
In turn, B3 gave a Kd with full length human DLL4 [10] of 0.155 nM. In the assay with full length human DLL4 [11], this molecule displayed a 50% inhibitory concentration (IC50) of 0.58 nM. In addition, in the assay with full length mouse DLL4, the half-maximal inhibitory concentration (IC50) was found to be 42 nM. In addition, in assay [12], binding was characterised by a dissociation constant (Kd) of 0.493 nM, the koff came to 0.000166 s⁻¹ and the kon stood at 337000 M⁻¹ s⁻¹.
